In assay [1] the target is PfArlH^S109C, single cysteine mutant of Pyrococcus furiosus ArlH labelled with Atto550 and Atto647N, non-phosphorylated (Pyrococcus furiosus). Nature of the assay: single-molecule TIRF photobleaching step counting.
Assay [2] concerns the target biotinylated PfArlI, ArlI motor ATPase of Pyrococcus furiosus with AviTag, unlabelled, immobilised (Pyrococcus furiosus). As to the kind of experiment: single-molecule TIRF photobleaching step counting.
In assay [3] the target is SaArlH, ArlH of Sulfolobus acidocaldarius, His-tagged, non-phosphorylated (Sulfolobus acidocaldarius). Nature of the assay: BLI. A general note: BLI is a label-free optical method that tracks binding on a fibre tip over time.
Assay [4] addresses labelled, biotinylated PfArlI^C290S/T411C (Pyrococcus furiosus). As to the kind of experiment: single-molecule TIRF photobleaching step counting.

“And” between values parts separate entries of the source, which are not always exact repeats. Equal values may be shown once.

As a reminder, the stoichiometry N is a count of units in the complex or per binding partner. By Kd is commonly meant a measure of binding affinity in units of concentration.

On to “PfArlH^S109C, single cysteine mutant of Pyrococcus furiosus ArlH labelled with Atto550 and Atto647N, non-phosphorylated (natural protein)”, for which the stoichiometry N in assay [1] is 6 and 3; in assay [2] it was 1.

In assay [3], “SaArlI, ArlI motor ATPase of Sulfolobus acidocaldarius (Strep-SaArlI) (enzyme)” had a Kd of 638 nM.

“labelled, biotinylated PfArlI^C290S/T411C (enzyme)”: in assay [4], the stoichiometry N was 3 and 2 and 6.

Values taken from article doi:10.1101/2021.03.19.436134.
